Test results from the nanobody polyreactivity screen of Harvey et al. (2022).

Assay: yeast display, Sf9 membrane polyspecificity reagent, FACS + sequencing; frameworks hold sequencing errors
Outline: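 Genes from sorted yeast were amplified by colony PCR, read by MiSeq 2 × 250 sequencing and filtered on CDR length. These cells carried a synthetic nanobody library in Saccharomyces cerevisiae BJ5465 and were sorted by FACS into low and high (top ~1%) gates on anti-HA and streptavidin fluorescence. Polyreactivity is labelled according to the gate of origin.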

QVQLVESGGGLVQAGGSLRLSCAATGSTFYVNDMGWYRQAPGKERELVAAIDWTGGTTYYADSEKGRFTISRDNAKNTVYLQMNSLKPEDSAVYYCAVDDSTVDYDYWGQGTQVTVSS
polyreactivity (PSR sort gate): low polyreactivity

QVQLVESGGGLVQAGGSLRLSCAATGSTIPYYAMGWYRQAPGKERELVARITSGDRTYYADSVKGRFTISRDNAKNTVYLQMNSLKPEDTADYYCNAQVHYYSWYGYWGQGTQVTVSS
polyreactivity (PSR sort gate): high polyreactivity

QVQLVESGGGLVQAGGSLRLSCAATGSTRYYAMGWYRHAPGKERELVASIASIGGSTSYADSVKGRFTISRDNAKNTVYLQMNSLKPEDTAVYYCATRSLVYSARAAGLIQFDHWGQGTQVTVSS
polyreactivity (PSR sort gate): low polyreactivity

QVQLVESGGGLVQAGGSLRLSCAATRYTFSHYAMGCYRQAPGKERELVAAMSGSGGNTYYADSVKGRFTISRDHAKNTVYLQMNSLKPEDTAVYYCNADNEYRLGYWDDSWVQGTQVTVSS
polyreactivity (PSR sort gate): low polyreactivity

QVQLVESGGGLVQAGGSLRLSCAAYEFIFARNGMGWSRQAPGKERELVAAITNSGSTYADSVKGRFTISRDNAKNTVYLQMNSLKPEDTAVYYCNKDPGNVSSYNGGGYWGQGTQVTVSS
polyreactivity (PSR sort gate): low polyreactivity

QVQLVESGGGLVQAGGSLRLSCAAYGFIFLENDMGWYRQAPGKERELVASINSGSDTNYADSVKGRFTISRDNAKNTVYLQMNSLKPEDTAVYYCNASYNGVPARYDYWGQGTQVTVSS
polyreactivity (PSR sort gate): low polyreactivity

QVQLVESGGGLVQAGGSLRLSCAAYGFTFSWYAMGWYRQAPGKERELVAAISSSGGSTYYADSVKGRFTISRDNAKNTVYLQMNSLKPEDTAVYYCNAYRSASVVVGYDYWGQGTQVTVSS
polyreactivity (PSR sort gate): high polyreactivity

QVQLVESGGGLVQAGGSLRLSCAAYGGIFPAYAMGWYRQAPGKERELVAAISSSGRTYYADSVKGRFTISRDNAKNTVYLQMNSVKPEDTAVYYCAAYGGYRGWVFGSYGSWGQGTQVTVSS
polyreactivity (PSR sort gate): high polyreactivity

QVQLVESGGGLVQAGGSLRLSCAAYGIIFYLYAMGWYRTAPGKERELVAAITWNGGRTYYADSVKGRFTISRDNAKNTVYLQMNSLKPEDTAVYYCNTDRRWRGTYTTRYDYWGQGTQVTVSS
polyreactivity (PSR sort gate): low polyreactivity

QVQLVESGGGLVQAGGSLRLSCAAYGITFAYYVMGWYRQAPGKERELVAAISRSGSTYYADSVKGRFTISRDNAKITVYLQMNCLKPEDTAVYYCAVLYIRWYTYEYWGQGTQVTVSS
polyreactivity (PSR sort gate): high polyreactivity

QVQLVESGGGLVQAGGSLRLSCAAYGITFEVNAMGWYRQAPGKERELVAAINSSVASTYYADSVKGRFTISRDNAKNTVDLQMNSLKPEDTAVYYCAAQGKGGTEYGYGYWGQGTQVTVSS
polyreactivity (PSR sort gate): low polyreactivity

QVQLVESGGGLVQAGGSLRLSCAAYGLTFPWNAMGWYRQSPGKERELVAAITSRGGNTYYADSVKGRFTISRDNAKNTVYLQMNSLKPEDTAVYYCAARQYWSYRRYDYWGQGTQVTVSS
polyreactivity (PSR sort gate): high polyreactivity

QVQLVESGGGLVQAGGSLRLSCAAYGNTFEGYAKGWYRQAPGKERELVAAISGSSGSTYYADSVKGRFTISRDNAKNTVYLQMNSLKPEDTAVYYCAAYSYYPPYDYWGQGTQVTVSS
polyreactivity (PSR sort gate): high polyreactivity

QVQLVESGGGLVQAGGSLRLSCAAYGNTFSQYAKGWYRQAPGKERELVATISKSSGSTSYTDSVKGRFTISRDNAKNTVYLQLNSLKPEDSAVYYCNADSSDVYHHLGVLFFSTWYDYWGQGTLVTVSS
polyreactivity (PSR sort gate): low polyreactivity

QVQLVESGGGLVQAGGSLRLSCAAYGRIFAPNAMGWYRQAPGKERELVATISWSGGSTYYADSVNGRFTISRDNSKNYVYLQMNSLKPEDTAVYYCAGSNYQYGVISYDYWGKGTQVTVSS
polyreactivity (PSR sort gate): low polyreactivity

QVQLVESGGGLVQAGGSLRLSCAAYGRIFFRYAMGWYRQAPGKERELVATISSSGSTYYADSVKGRFTISRDNAKNTVYLQMNSLIPEDTAVYYCAATWTTRGLRHFVYNDYDYWGQGTQVTVSS
polyreactivity (PSR sort gate): high polyreactivity

QVQLVESGGGLVQAGGSLRLSCAAYGRIFWLYAMGWYRQAPGKERELVAVISWSGGTTYYADSVKGRFTISRDNAKNTVYLQMNSLKPEVTAVYYCAKQGWTSYDYWGQGTQVTVSS
polyreactivity (PSR sort gate): low polyreactivity

QVQLVESGGGLVQAGGSLRLSCAAYGRTFHAYAKGWYRQAPGKGRELVAAITRTGTTHYADSVKGRFTISRDNAKNTVYLQMNSLKPEDTAVYYCAAQHVRVDAQFVLQGYDYWGQGTQVTVSS
polyreactivity (PSR sort gate): low polyreactivity

QVQLVESGGGLVQAGGSLRLSCAAYGRTFLYNAMGWYRQAPGKERELVAAISSRGARTYYADSVKGRFTISRDNAKNTVYLQMNSLKPEDTAVYYCATDSYRYDGIQYLYEYYYWGQGTQVTVSS
polyreactivity (PSR sort gate): high polyreactivity

QVQLVESGGGLVQAGGSLRLSCAAYGRTFRLNAMGWYRQAPGKERELVAGIRVRAGTTYYADSVKGRFTISRDNAKNTVYLQMNSLKPEDTAVYYCAAESYSRSRKYDYWGQGTQVTVSS
polyreactivity (PSR sort gate): high polyreactivity

QVQLVESGGGLVQAGGSLRLSCAAYGRTFYGYAMGWYRQAPGKEREFFAAITWRGGSTYYADSVKGRFSISRDNAKNNVFLQMNSLKPEDTAVYYCAADYRVYTRYGLRKFDYWGQCTQVTVSS
polyreactivity (PSR sort gate): high polyreactivity

QVQLVESGGGLVQAGGSLRLSCAAYGRTIRRNAMGWYRQAPGKERELVAGISGSGTITYADSVKGRFTIARDNAKNTVYLQMNSLKPEDTAVYYCAARRKSFYTFYYWGQGTQVTVSS
polyreactivity (PSR sort gate): high polyreactivity

QVQLVESGGGLVQAGGSLRLSCAAYGRYYSRNPMGWYRQAPGKERELVAAITWRGGSTYYADSVKGRFTISRDNAKNTVFLQMISLKPEDTAVYYCNRDYRQYGYAYSGRYYWGHGTQVTVSS
polyreactivity (PSR sort gate): high polyreactivity

QVQLVESGGGLVQAGGSLRLSCAAYGSFFPYNAMGWYRQAPGKERELVAGITRRGGSTYYADSVKGRFTISRDNAKNTVYLQINSLKPVDTAVYYCGTEVTYPWHVDEGDYWGQGTQVTVSS
polyreactivity (PSR sort gate): low polyreactivity

QVQLVESGGGLVQAGGSLRLSCAAYGSIFDANAMGWYRQAPGKEREFLAAINCTGGSTYYAESVKGRFTISRDYAKNTVYLQMNILKPEDTAGYYCAAEWWYQNNPEIYYYWGQGIQVTVSS
polyreactivity (PSR sort gate): high polyreactivity

QVQLVESGGGLVQAGGSLRLSCAAYGSIFETYVMGWYRQAPGKERELVAAINSGGSTNYADSVKGRFTISRDNAKNTVYLQMNSLKPEDTAVYYCNADWFTPAQPWYRYFIRYDYWGQGTQVTVSS
polyreactivity (PSR sort gate): low polyreactivity

QVQLVESGGGLVQAGGSLRLSCAAYGSIFGGNAMGWYRQAPGKERELVARITDRGGSTDYADSVKGRFTISRDNAKNTVFLHMNSLKREDTAVYYCAKRGDRYEQRPRDYWGQGTQVTVSS
polyreactivity (PSR sort gate): low polyreactivity

QVQLVESGGGLVQAGGSLRLSCAAYGSIFGSYCMGWYRQAPGKERELVAAIRVSGGSTYYADSVKGRFTISRDNAKNTVYLQMNSLKPEDTAVYYCAARARSTPRKYYYTRGYWGQGSQVTVSS
polyreactivity (PSR sort gate): high polyreactivity

QVQLVESGGGLVQAGGSLRLSCAAYGSIFVWYDMGWYRQAPGKERELVATISLSGVSTYYADSVKGRFTISRDNAKNTVYLQMNCLKPEDSAVYYCAADFVEQGEDDYWGQGTQLTVSS
polyreactivity (PSR sort gate): low polyreactivity

QVQLVESGGGLVQAGGSLRLSCAAYGSTFPGYAMGWYRQAPGKERELVAAISASGGSTYYADSVKGRFTISRDNAKNTVYLQMISLIPEDTAVYFCAKVLSRGACADDYWGQGTQVTVSS
polyreactivity (PSR sort gate): low polyreactivity

QVQLVESGGGLVQAGGSLRLSCAAYGSTFYAYAMGWYRQAPGKERELVAAITYRDARTYYADSVKGRFTISRDNAKNTVYLQMISLKPEDTAVYYCARKTGFTVRRYDYWGQGTQVTVSS
polyreactivity (PSR sort gate): high polyreactivity

QVQLVESGGGLVQAGGSLRLSCAAYGSTLAGYAMGWYRQAPGKERELVAAIDWTGGSTTYADSVKGRFTISRDNAKNTVYLQMNSLKPEDTAVYYCNVDLGVNGDYWGQGSQVTVSS
polyreactivity (PSR sort gate): low polyreactivity

QVQLVESGGGLVQAGGSLRLSCAAYGSTLNRNVMGWYRQAPGKERELVAVITYGVGSTYYADSVKGRFTISRDNAKNTVYLQMNSLKPEDTAVYYCNKDPLVFDYWGQGTQVTVSS
polyreactivity (PSR sort gate): low polyreactivity

QVQLVESGGGLVQAGGSLRLSCADSGFIFRYNTMGWYRQAPGKERELVAAITSGDSTYYADSVKGRFTITRDNAKNTVYLQMNSLKPEDTEVYYCAARPYSGRNKYDYWGQGTQVTVSS
polyreactivity (PSR sort gate): high polyreactivity

QVQLVESGGGLVQAGGSLRLSCADSGFIFYDYTMGWYRQAPGKERELVAVISRGGSTYYADSVKGRFTISRDNAKNTVYLQMNSLNPEDSAVYYCAARPRWYTFTRQEYDYWGQGTQVTVSS
polyreactivity (PSR sort gate): high polyreactivity

QVQLVESGGGLVQAGGSLRLSCADSGFIIFCYAMGWYRQAPGKERELVAAITSGGSTYYAYSVKGRFTISRDNAKNTVYLQMNSLKPEDTAVYYCAAVRWYGSKRYGYWGQGTQVTVSS
polyreactivity (PSR sort gate): high polyreactivity

QVQLVESGGGLVQAGGSLRLSCADSGFNFYQYAMGWYRQAPGKERELVAVISGSGSRTYYADSVKGRFTISRDNAKNTVYLQMNSLKPEDTAVYYCAAKGVIISYDTLRYDSWGQGTQVTVSS
polyreactivity (PSR sort gate): high polyreactivity

QVQLVESGGGLVQAGGSLRLSCADSGFTFIKYAMGWYRQAPGKEREFVATISWNGGNTYYADSVKGRFTISRDNAKNTVYLQMNSLKPEDTAVYYCAARVKYRTRGGTVVSYDYWGQGPQVTVSS
polyreactivity (PSR sort gate): high polyreactivity

QVQLVESGGGLVQAGGSLRLSCADSGFTFRYNAMGWYRQAPGKERELVAAISRSGGRTYYADSVKGRFTISRDNAKNTVYLQMNSLKPEDSAVYYCAAVAARITGYGYWGQGTQVTVSS
polyreactivity (PSR sort gate): high polyreactivity

QVQLVESGGGLVQAGGSLRLSCADSGFTFVAYAMGWYRQAPGKERELVAVISRGGSTYYADSVKGRFTISRDNAKNTVYLQMNSLKPEDTAVYYCAATYIHSYGKFYYWGQGTQLTVSS
polyreactivity (PSR sort gate): low polyreactivity

QVQLVESGGGLVQAGGSLRLSCADSGFTFYYSAMGWYRQAPGKEREVVAAISWGGGTTYYADSVKGRFTISRDNAKNTVYLQMNSLKPEDTAVFYCNAASSLPGYDYWGQGTQVTVSS
polyreactivity (PSR sort gate): high polyreactivity

QVQLVESGGGLVQAGGSLRLSCADSGIIFYVYAMGWYRPAPGKEREWVAAISSGGRTKYADSVKGRFTISRDNAKNTVYLQMNSLKPEDTAVYYCAAKSVRRRLGYWGQGTQVTVSS
polyreactivity (PSR sort gate): high polyreactivity

QVQLVESGGGLVQAGGSLRLSCADSGIISIFNVIGWYRQAPGKERELVASITGRGGSTFYADSVKGRFTISRDNAKNTVYLQMNILKPEDTAVYYCATDTGYTYPVTGLYDYWGQGTQVTVSS
polyreactivity (PSR sort gate): low polyreactivity
